For three molecules, Kd results are on record in PMC11800091 (iScience, 2025).

For experiment [1], the target named is human immunodeficiency virus type 1 JR-CSF Fc-gp120 protein (HIV-1 JR-CSF) (UniProt P20871). Kind of experiment: BLI. In general terms: Biolayer interferometry detects binding as a change in optical thickness at a sensor tip.
Experiment [2] addresses human immunodeficiency virus type 1 JR-CSF Fc-gp120 protein (HIV-1 JR-CSF, UniProt P20871). Description: BLI.

For orientation: Kd means the free concentration of one partner at which half of the binding sites on the other are occupied at equilibrium, for simple one-to-one binding. A low value points to higher affinity. Molecule LPETG sortag-J3 nanobody (VHH) returned a Kd in experiment [1] of 1.92 nM.

B1: 3E3 nanobody (VHH)
VHH: EVQLVESGGGLVQPGGSLRLSCAASQFTLESYAIGWFRQAPGKDSEGVACISSSTYYADSVKGRFTISRDNAKNTVYLQMESLKPEDTAVYHCATSGAGSYCTLRAFGSWGQGTQVTVSS
On to B1, for which binding in experiment [2] was characterised by a dissociation constant (Kd) of 3.33 nM.

B2: LPETG sortag-3E3 nanobody (VHH)
VHH: EVQLVESGGGLVQPGGSLRLSCAASQFTLESYAIGWFRQAPGKDSEGVACISSSTYYADSVKGRFTISRDNAKNTVYLQMESLKPEDTAVYHCATSGAGSYCTLRAFGSWGQGTQVTVSS
As to B2, the Kd in experiment [2] came to 2.51 nM.
